From article PMC11435379 come the findings set out here.

Several values for one entry are separate records, joined by “and”; a condition that tells them apart may be missing. Equal values may be shown once.

In assay [1] the target is Cetuximab (Erbitux, 5 mg/mL). The assay is described as follows: SEC; SE/UHPLC-UV as a10; sample exposed to accelerated light (250 W/m^2) for 24 h. On the technique in general: Size exclusion chromatography separates by hydrodynamic size, large species first.
Assay [2] addresses Cetuximab (Erbitux, 5 mg/mL). The assay is described as follows: SEC; SE/UHPLC-UV as a10; sample exposed to daylight for 24 h.

Cetuximab (Erbitux, 5 mg/mL) (antibody): the stoichiometry N (in general, the number of molecules, sites or subunits per partner or assembly) in assay [1] is 3 and 8 and 5; in assay [2], 3.
